For experiment [1], the target named is T1, CCR1 solubilized from HEK293 membranes and purified in detergent/lipid micelles (human, UniProt P32246 1-355).
T1 sequence (looked up): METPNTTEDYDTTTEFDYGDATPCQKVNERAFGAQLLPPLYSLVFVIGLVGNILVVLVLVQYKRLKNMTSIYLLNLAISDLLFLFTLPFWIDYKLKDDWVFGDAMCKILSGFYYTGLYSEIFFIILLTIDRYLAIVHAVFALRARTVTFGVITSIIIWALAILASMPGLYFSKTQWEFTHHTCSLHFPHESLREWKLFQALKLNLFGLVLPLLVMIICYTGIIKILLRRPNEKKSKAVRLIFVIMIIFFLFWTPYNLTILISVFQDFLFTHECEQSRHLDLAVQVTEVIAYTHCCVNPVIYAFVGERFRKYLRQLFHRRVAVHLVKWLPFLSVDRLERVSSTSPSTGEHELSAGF
In words: fluorescence polarisation.

The target of experiment [2] is T1, CCR1 solubilized from HEK293 membranes …. The experiment is described as follows: fluorescence polarisation. This is another data set of the same source. (In fluorescence polarisation assays a small probe gives low polarisation when free and higher when bound to something large.)
Experiment [3] shares this target. The experiment is described as follows: fluorescence polarisation. This is another data set of the same source.
The target is the same in experiment [4]. The experiment is described as follows: fluorescence polarisation. This is another data set of the same source.
Experiment [5] shares this target. In words: fluorescence polarisation. This is another data set of the same source.
In experiment [6] the target is T2, wild-type CCR1 expressed on HEK293 cells (human, UniProt P32246 1-355).
T2 sequence (looked up): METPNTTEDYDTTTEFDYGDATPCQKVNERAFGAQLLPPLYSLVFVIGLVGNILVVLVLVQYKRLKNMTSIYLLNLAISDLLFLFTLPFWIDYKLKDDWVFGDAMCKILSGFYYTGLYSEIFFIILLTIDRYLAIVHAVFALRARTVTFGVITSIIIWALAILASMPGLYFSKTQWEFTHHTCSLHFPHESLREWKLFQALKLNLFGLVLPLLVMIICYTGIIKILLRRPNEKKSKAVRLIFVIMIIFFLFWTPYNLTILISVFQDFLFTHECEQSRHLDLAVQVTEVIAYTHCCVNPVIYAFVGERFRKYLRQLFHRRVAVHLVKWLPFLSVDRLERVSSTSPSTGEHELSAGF
The experiment is described as follows: cell-based or functional assay.

In experiment [7] the target is T2, wild-type CCR1 expressed on HEK293 cells. The experiment is described as follows: radioligand binding.

Read-outs that look alike come from different tables or passages of the source. fluorescein‑5‑maleimide = fluorescein-5-maleimide Some results are limits rather than exact numbers.

For orientation: Kd means the constant that tells how readily two partners part at equilibrium. In general, IC50 refers to the concentration that inhibits the measured activity by half.

B1: CCL14-fluorescein (ligand)
chain: GPYHPSECCFTYTTYKIPRQRIMDYYETNSQCSKPGIVFITKRGHSVCTNPSDKWVQDYIKDMKENC(fluorescein‑5‑maleimide)
For the molecule B1, the Kd in experiment [1] was 35 nM; in experiment [2], above 1000 nM; in experiment [3], above 1000 nM; in experiment [4] it was 21 nM; in experiment [5], above 1000 nM.

B2: CCL7 (ligand)
chain: not shown
Regarding B2, in experiment [6], the “EC50 of calcium mobilization in CCR1-transfected HEK293 cells (FLIPR Calcium 4)” value stood at 8 nM.

B3: wild-type CCL3 (ligand, UniProt P10147 24-92, looked up)
chain: SLAADTPTACCFSYTSRQIPQNFIADYFETSSQCSKPGVIFLTKRSRQVCADPSEEWVQKYVSDLELSA
B3 showed an IC50 in experiment [7] of 0.9 nM.
